Biological target: T1, monomeric recombinant Tau (2N4R) (Homo sapiens (Human)., UniProt P10636-8)
T1 construct: Tau (microtubule-associated protein Tau), isoform 2N4R, 441 amino acids; gene synthesized by DNA2.0; also called Tau monomer; monomeric Tau; source: Expi293 expression system, purified from culture medium (Ni Sepharose Excel, TEV cleavage, second Ni Sepharose Excel); not shown: 10His-TEV, N-terminal, cleaved
Assay: SPR; monomeric recombinant Tau and full-length IgG; BIAcore T200, 25 °C; extrinsic affinity; who was immobilised is not told for the monomer
Settings: both partners purified

T1 sequence (P10636 other isoform, or with tags, fused parts or gaps): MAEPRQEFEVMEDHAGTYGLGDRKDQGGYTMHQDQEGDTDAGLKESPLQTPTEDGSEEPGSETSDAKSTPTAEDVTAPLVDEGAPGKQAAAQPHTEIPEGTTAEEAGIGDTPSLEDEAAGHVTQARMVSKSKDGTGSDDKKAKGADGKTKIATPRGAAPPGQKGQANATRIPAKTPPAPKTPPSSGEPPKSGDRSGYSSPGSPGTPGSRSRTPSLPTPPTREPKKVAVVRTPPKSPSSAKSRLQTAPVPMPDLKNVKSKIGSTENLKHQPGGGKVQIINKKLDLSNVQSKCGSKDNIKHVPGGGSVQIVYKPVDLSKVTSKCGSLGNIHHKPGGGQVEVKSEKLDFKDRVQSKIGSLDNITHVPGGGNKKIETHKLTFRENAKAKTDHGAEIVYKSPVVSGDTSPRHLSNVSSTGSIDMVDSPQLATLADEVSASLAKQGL

| Kd [nM] | koff [s⁻¹] | kon [M⁻¹ s⁻¹] | Binder |
| --- | --- | --- | --- |
| 0.16 | 5.2e-05 | 360000 | antibody A (antibody, V domains shown, heavy chain V-region; mouse gamma-1 IgG heavy chain constant region (from the expression vector); light chain V-region; mouse kappa light chain constant region (from the expression vector); source: CHOSXE cell line, electroporated, purified (Protein A, gel filtration); copies: 2 + 2) VH: EVHLVESGGALVKPGGSLKLSCAASGFSFSKYGMSWVRQTPDKRLEWVATISSSGSRTYYPDSVKGQFTISRDNAKNTLYLQMSSLKSEDTAMYYCSISWDGAMDYWGQGTSVTVSS VL: DVLMTQTPLSLPVSLGDQASISCKSSQSIVHSNGNTYLEWYLQKPGQSPKLLVYKVSNRFSGVPDRFSGSGSGTDFTLKISRVEAEDLGTYYCFQGSLVPWAFGGGTKLEIK |
| 20.7 | 0.000953 | 50000 | antibody B (antibody, V domains shown, heavy chain V-region; mouse gamma-1 IgG heavy chain constant region (from the expression vector); light chain V-region; mouse kappa light chain constant region (from the expression vector); source: CHOSXE cell line, electroporated, purified (Protein A, gel filtration); copies: 2 + 2) VH: EVKVEESGGGLVQPGGSMKLSCVVSGFTFSNYWVNWVRQSPEKGLEWVAQIRLKSDNYATHYEESVKGRFTISRDDSKSSVYLQMNNLRAEDSGIYYCTNWEDYWGQGTTLTVSS VL: DIVLTQSPASLAVSLGQRATISCRASQSVSTSRYSYIHWYQQKPGQPPKLLIKYASNLESGVPARFSGSGSGTDFTLNIHPLEEEDAATYYCHHSWEIPLTFGAGTKLELK |
| 117 | 0.0205 | 180000 | antibody F (antibody, V domains shown, heavy chain V-region; mouse gamma-1 IgG heavy chain constant region (from the expression vector); light chain V-region; mouse kappa light chain constant region (from the expression vector); source: CHOSXE cell line, electroporated, purified (Protein A, gel filtration); copies: 2 + 2) VH: EVQLVQSGAEVKKPGESLKISCKGSGYTFSNYWIEWVRQMPGKGLEWMGEILPGSDSIKYEKNFKGQVTISADKSISTAYLQWSSLKASDTAMYYCARRGNYVDDWGQGTLVTVSS VL: EIVLTQSPGTLSLSPGERATLSCRSSQSLVHSNQNTYLHWYQQKPGQAPRLLIYKVDNRFSGIPDRFSGSGSGTDFTLTISRLEPEDFAVYYCSQSTLVPLTFGGGTKVEIK |
